Laboratory results from article PMC12170172, “Initiation of ERAD by the bifunctional complex of Mnl1/Htm1 mannosidase and protein disulfide isomerase” (Nature Structural & Molecular Biology, 2025).

Molecular target: T1, Mnl1 (C579S)–FLAG (S. cerevisiae, UniProt P38888 21-796, C579S)
T1 construct: Mnl1 (Htm1) of S. cerevisiae with a substituted loop cysteine; source: S. cerevisiae, overexpressed together with Pdi1, purified as a complex (anti-FLAG M2 resin, Superdex 200); not shown: FLAG, C-terminal, kept
T1 sequence (looked up): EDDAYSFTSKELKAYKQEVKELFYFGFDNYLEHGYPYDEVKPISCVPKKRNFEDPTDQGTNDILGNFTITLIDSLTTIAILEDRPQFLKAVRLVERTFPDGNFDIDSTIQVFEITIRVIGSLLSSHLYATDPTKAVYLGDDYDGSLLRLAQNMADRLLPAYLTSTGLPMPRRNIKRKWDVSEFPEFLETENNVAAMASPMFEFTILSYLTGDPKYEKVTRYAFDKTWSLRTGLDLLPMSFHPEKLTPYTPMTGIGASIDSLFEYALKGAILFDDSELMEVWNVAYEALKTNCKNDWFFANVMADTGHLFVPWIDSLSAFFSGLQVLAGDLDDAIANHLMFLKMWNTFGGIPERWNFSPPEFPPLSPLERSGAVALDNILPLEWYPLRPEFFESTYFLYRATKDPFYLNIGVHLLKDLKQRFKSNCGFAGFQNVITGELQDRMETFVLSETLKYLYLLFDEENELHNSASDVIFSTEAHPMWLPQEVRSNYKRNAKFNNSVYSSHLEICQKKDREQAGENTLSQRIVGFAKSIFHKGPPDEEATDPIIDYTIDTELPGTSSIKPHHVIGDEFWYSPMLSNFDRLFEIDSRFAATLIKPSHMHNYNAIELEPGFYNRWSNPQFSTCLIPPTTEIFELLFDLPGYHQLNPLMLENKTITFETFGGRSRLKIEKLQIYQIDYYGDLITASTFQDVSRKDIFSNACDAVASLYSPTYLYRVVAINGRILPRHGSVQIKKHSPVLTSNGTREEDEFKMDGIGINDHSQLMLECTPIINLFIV
Assay: cross-linking; purified complexes of Pdi1 with wild-type or mutant Mnl1 incubated with increasing concentrations of DPS (2,2′-dipyridyldisulfide) to induce disulfides; non-reducing SDS-PAGE, Coomassie blue
Conditions: both partners purified

B1: Pdi1 (protein disulfide isomerase) (enzyme, S. cerevisiae, UniProt P17967 29-522, looked up)
chain: PEDSAVVKLATDSFNEYIQSHDLVLAEFFAPWCGHCKNMAPEYVKAAETLVEKNITLAQIDCTENQDLCMEHNIPGFPSLKIFKNSDVNNSIDYEGPRTAEAIVQFMIKQSQPAVAVVADLPAYLANETFVTPVIVQSGKIDADFNATFYSMANKHFNDYDFVSAENADDDFKLSIYLPSAMDEPVVYNGKKADIADADVFEKWLQVEALPYFGEIDGSVFAQYVESGLPLGYLFYNDEEELEEYKPLFTELAKKNRGLMNFVSIDARKFGRHAGNLNMKEQFPLFAIHDMTEDLKYGLPQLSEEAFDELSDKIVLESKAIESLVKDFLKGDASPIVKSQEIFENQDSSVFQLVGKNHDEIVNDPKKDVLVLYYAPWCGHCKRLAPTYQELADTYANATSDVLIAKLDHTENDVRGVVIEGYPTIVLYPGGKKSESVVYQGSRSLDSLFDFIKENGHFDVDGKALYEEAQEKAAEEADADAELADEEDAIHDEL
notes: Pdi1, protein disulfide isomerase of S. cerevisiae, untagged; Trx domains a, b, b′ and a′; amino acids 24–500 could be modelled; source: S. cerevisiae, overexpressed together with Mnl1–FLAG (GAL1 promoter), purified as a complex
  binding result: binds
